From paper PMC7339583 (Alzheimer's Research & Therapy, 2020)
Values joined by “and” are separate entries in the source; they are usually repeats but may differ in a detail not shown here. Identical values can stand only once. “Also recorded” adds a separate entry of the source.

Experiments:
CatD [1] = biological target: T1, CatD (Homo sapiens, UniProt P07339); assay: Competitive inhibition of CatD activity, fluorogenic substrate (fluorescence dequenching); type: biochemical; conditions: mean ± SEM of 4–8 replicates (Fig. 4f)
T1 construct: purchased Enzo Life Sciences
T1 sequence (P07339 65-412): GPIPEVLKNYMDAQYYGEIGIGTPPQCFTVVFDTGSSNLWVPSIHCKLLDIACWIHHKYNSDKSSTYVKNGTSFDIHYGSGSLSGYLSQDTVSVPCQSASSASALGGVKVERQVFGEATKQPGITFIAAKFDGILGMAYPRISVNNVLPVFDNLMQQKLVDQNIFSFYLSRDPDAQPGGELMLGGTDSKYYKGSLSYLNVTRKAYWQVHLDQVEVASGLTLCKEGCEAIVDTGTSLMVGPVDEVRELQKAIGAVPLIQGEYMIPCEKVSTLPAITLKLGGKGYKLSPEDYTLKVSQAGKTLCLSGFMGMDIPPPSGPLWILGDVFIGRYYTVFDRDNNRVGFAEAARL
Method: To address this, we tested the extent to which different peptides at identical concentrations inhibited CatD activity monitored with a fluorogenic substrate.
For the determination of the pH dependence of Aβ degradation in soluble brain extracts, freshly harvested brain tissue from 15-day-old mice was dissociated in 20 mM Tris-HCl, pH 7.4 at 4 °C using a Dounce homogenizer, then centrifuged at 1000×g. The resulting supernatant was diluted 1:20 in Britton-Robinson buffers of different pHs, and CatD activity was quantified either using a well-characterized fluorescence polarization-based Aβ degradation assay as described or by monitoring hydrolysis of the CatD-specific fluorogenic substrate, Mca-[…]-Dnp. Kinetic experiments were conducted using freshly prepared, monomeric Aβ peptides separated from aggregated species by size-exclusion chromatography (SEC) and characterized as described. Aβ peptides and PepA were diluted in neutral Dilution Buffer (20 mM Tris, pH 8.0 supplemented with 0.1% BSA), with addition of DMSO as appropriate, and reactions were initiated by transfer into Assay Buffer (60 mM Na-citrate; 80 mM Na2HPO4, pH 4.0; Sigma) supplemented with purified human CatD (Enzo Life Sciences). Where required, reactions were terminated by adjustment to neutral pH with 10× Stop Buffer (0.2 M Tris-HCL, pH 9.5 supplemented with 10 μM PepA). […] Competitive inhibition experiments were conducted using either ELISAs, an Aβ-degradation assay or the fluorogenic substrate.

[2] = biological target: Cathepsin D (purified human CatD, Enzo Life Sciences) (human) (UniProt P07339)
[3] = biological target: T2, insulin-degrading enzyme (IDE) (Mus musculus, UniProt Q9JHR7); assay: Aβ-degrading activity in soluble brain extracts at neutral pH; type: biochemical; conditions: 15-day-old mice; excess insulin; pH 7.5 to 9.5
T2 construct: freshly harvested brain tissue from 15-day-old mice was dissociated in 20 mM Tris-HCl, pH 7.4; from tissue; host or cells: mouse brain, soluble extract (15-day-old mice)
T2 sequence (Q9JHR7 whole entry): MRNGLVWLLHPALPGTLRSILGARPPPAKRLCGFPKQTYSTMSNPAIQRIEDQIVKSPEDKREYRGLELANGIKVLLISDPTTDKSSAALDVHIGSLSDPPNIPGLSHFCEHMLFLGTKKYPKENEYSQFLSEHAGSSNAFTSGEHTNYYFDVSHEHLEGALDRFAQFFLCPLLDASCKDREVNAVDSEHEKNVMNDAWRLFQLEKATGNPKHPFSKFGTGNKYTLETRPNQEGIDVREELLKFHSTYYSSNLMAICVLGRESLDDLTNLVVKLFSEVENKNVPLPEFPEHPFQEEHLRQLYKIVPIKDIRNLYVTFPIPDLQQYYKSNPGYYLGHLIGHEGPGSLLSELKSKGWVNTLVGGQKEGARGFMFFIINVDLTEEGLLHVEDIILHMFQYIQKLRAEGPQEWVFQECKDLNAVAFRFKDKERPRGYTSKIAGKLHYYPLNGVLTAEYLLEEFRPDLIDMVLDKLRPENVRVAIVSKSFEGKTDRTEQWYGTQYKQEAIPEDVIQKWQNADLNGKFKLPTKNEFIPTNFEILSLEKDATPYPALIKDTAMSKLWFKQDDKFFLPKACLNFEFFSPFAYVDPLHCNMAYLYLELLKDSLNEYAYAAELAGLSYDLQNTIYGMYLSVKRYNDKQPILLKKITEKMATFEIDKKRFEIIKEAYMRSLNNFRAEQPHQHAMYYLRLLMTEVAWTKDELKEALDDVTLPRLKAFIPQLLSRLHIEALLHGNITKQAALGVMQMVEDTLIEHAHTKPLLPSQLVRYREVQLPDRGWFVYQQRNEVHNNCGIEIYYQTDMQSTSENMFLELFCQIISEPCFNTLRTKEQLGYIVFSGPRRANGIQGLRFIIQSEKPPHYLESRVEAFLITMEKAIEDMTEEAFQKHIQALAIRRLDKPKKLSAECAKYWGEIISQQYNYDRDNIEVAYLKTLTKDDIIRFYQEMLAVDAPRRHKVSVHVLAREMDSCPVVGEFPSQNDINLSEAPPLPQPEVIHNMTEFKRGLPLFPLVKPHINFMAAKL
Description: (§1) As an initial step towards elucidating the role of CatD in Aβ proteostasis, we quantified rates of Aβ degradation in vitro in soluble brain extracts from CatD-KO mice and wild-type controls as a function of pH, focusing on extracts from 15-day-old mice, due to the premature lethality of CatD-KO mice that occurs by ~ 4 weeks of age. Consistent with previous results, Aβ-degrading activity was present principally within two pH ranges: at neutral pH (pH 7.5 to 9.5) and—to a considerably larger extent—also at acidic pH (pH 2.5 to 4.5) (Fig. 1a). The Aβ-degrading activity at neutral pH was inhibited by excess insulin and reflects the activity of the neutral protease insulin-degrading enzyme (IDE), as shown previously by McDermott and Gibson. […] To extend and confirm these findings, we quantified Aβ degradation at pH 4.0 in soluble brain extracts from CatD-KO and WT mice, as well as heterozygous null (CatD-HET) mice (Fig. 1b). […] Consistent with this, levels of both preprocathepsin D and mature CatD protein in the CatD-HET animals were also determined to be > 50% of WT levels (Fig. 1c, d), with mature CatD protein being reduced by only 26.0 ± 14.2% relative to WT controls (p > 0.05; Fig. 1d). […]

CatD [4] = biological target: T3, CatD (Mus musculus, UniProt P18242); assay: Aβ-degrading activity in soluble brain extracts at pH 4.0; type: biochemical; conditions: 15-day-old mice, 4 replicates
T3 construct: freshly harvested brain tissue from 15-day-old mice was dissociated in 20 mM Tris-HCl, pH 7.4; from tissue; host or cells: mouse brain, soluble extract (15-day-old WT and CatD-HET mice)
T3 sequence (P18242 65-410): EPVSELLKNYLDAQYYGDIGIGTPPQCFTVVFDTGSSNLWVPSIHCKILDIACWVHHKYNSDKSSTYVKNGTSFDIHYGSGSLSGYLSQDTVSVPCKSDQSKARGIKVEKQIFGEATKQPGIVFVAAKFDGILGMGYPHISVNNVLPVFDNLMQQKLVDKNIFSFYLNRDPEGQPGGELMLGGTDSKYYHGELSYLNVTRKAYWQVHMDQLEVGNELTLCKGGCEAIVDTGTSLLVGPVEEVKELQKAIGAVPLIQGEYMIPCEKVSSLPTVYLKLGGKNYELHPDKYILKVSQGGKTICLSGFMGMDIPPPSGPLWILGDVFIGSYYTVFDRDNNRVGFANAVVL
Description: as §1

| inhibition of CatD activity at 1 μM peptide (CatD [1]) | Substance | further results |
| --- | --- | --- |
| strongly inhibited and > 90% | Aβ(17–42): α-secretase-derived p3 fragment of APP ending at position 42 (LVFFAEDVGSNKGAIIGLMVGGVVIA; Amyloid-beta protein 42; UniProt P05067 688-713, looked up, fragment) |  |
| > 90% | rodent Aβ42: full-length murine Aβ ending at position 42 (DAEFGHDSGFEVRHQKLVFFAEDVGSNKGAIIGLMVGGVVIA) | inhibition of CatD activity at 1 μM peptide (CatD [1]; listed as mAβ(1–42)): strongly inhibited |

Continued, substance first:

| Substance | inhibition of CatD activity at 1 μM peptide (CatD [1]) | further results |
| --- | --- | --- |
| Aβ(33–40): C-terminal fragment corresponding to Aβ(33–42), ending at position 40 (GLMVGGVV; Amyloid-beta protein 40; UniProt P05067 704-711, looked up, fragment) | modest but statistically significant inhibition |  |
| Aβ(33–42): short C-terminal fragment of Aβ42 (GLMVGGVVIA; Amyloid-beta protein 42; UniProt P05067 704-713, looked up, fragment) | failed to inhibit significantly |  |
| full-length murine Aβ (mAβ(1–42)) (from UniProt P12023 672-713) (peptide) |  | inhibition of CatD activity (fluorogenic substrate) by 1 μM peptide [2]: > 90% |
| insulin |  | inhibition of Aβ-degrading activity at neutral pH in brain extracts [3]: inhibited |
| pepstatin A |  | inhibition of Aβ-degrading activity in WT and CatD-HET brain extracts (CatD [4]): largely inhibited; also recorded: inhibited almost completely |
